Reference: the domain aggregation screens of Martell et al. (2025)

assay: soluble fraction after stress (log2 fold change); higher = more stays soluble; pooled small domains, quantitative proteomics; details: stress: pH 4
Summary of the method: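 How much of each domain stays soluble after acid stress, expressed as a fold change, is used to gauge aggregation propensity. Pooled custom libraries of small domains underwent pH 4 stress before high-throughput quantitative proteomics. A higher log2 value means more of the domain stayed soluble.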

Sequence | soluble fraction (log2)
HMIDYIKYTVDGKTYELINNWDGTWSRELEAPLVAGRYDLLLEISQNGLVTYIDSSDPRYEFYLDVI | -2.3
HMVDPAEASKRAREYLDALPADDLKDVIRQFSATLAEGSVVLGYFQRSGLKSKVVKTALEQFVASTILSK | -0.268
HMTNVYSLIGKRGIVVEDIDWQKGTGQVKIDGELWSVKTNEQINISKGTEVEVENIEGVKVFVKPI | -0.458
HMAVSGRGSIIGGVATVLDDFADSGKVWLEGEAWQARSSVPLKQDQEVVVRAMDGLVLVVEPVA | -0.869
HMNDLKEDTITVQSVEYIDSDDGTMVYIKDTNHQVYKQAFKEDESLIRISAGDVLHVKYQPMDNEIHLL | -2.07
HMGMTNRIKELRKAKGYRQEDLAAALGVSRQTIIAVENNKYNPTLELAMKLARHLQTTVEELFQL | -0.885
HMIKIDESTLSEDELKIFEILKIEDKNIENIAIESKILPGKLLATLMNMEMKKIVVQYPGKVFGLNRKLK | 0.0566
HMTKTKFLSKDMILSAMSRTKSNRAAARYLSVSFVHYKKYAREYKDETSGVSLWEKHKNQSGTGIPK | 0.0318
HMDVKPWERQEGESAKAFEAFTIYAGLGADRSLRAVAQQLGKSKTLMDRWSSTYSWVARAAEYDADLQRK | ≥ 0.43
HMRFDADELQKAYDLFDADENTPFKTIKQAYYALARRHHPDKNGDQEYFKVINNAFQLIQEHRRRRDN | -0.412
HMTSAHEKAFDLFDGGKLSEKALLIAVGAERSGFELAGDLRLRTLTAFEDGRLSEDAMIKLL | -1.5
HMTSLQDLLEELRVIRETLTGSQVLSDMQLFSQLRNLGDIKAALTRMQDNPAAARMVGEVDKLLETMFAS | -1.56
HMLQFTYPRLHTKKSWYVDFMSFDPGAGKMRRKKFMLDGIPKITDRRKRAAELIEVLTKQLRAGWSPWVNV | 0.403
HMASIGTATVTADNLRLRSEAGTGAETLTMAPKGAEVTVEEDAGDGWYKVTYGDTEGYMSGEWLKITLA | -0.0742
HMAFGTGTVTASSLRVREDASTSAATLDTLSKGSKVSVLADEQDGFYKVQIGEQVGYMSAEYLDVTE | -0.269
HMTDGYAMRLERLNSLEEYVLNKGTVSLEDLAERFGVSINTIRRDLNELISRGQIKKVYGGVSSLHD | -0.245
HMQTTVHLSPEEMVIMNALKQESPIDLPILRAQVEMSNKLWDTSMKNLSKLGQLKVEKIGEQVSVSLI | ≥ 0.43
HMKPTVKKLLAALPELRSGQPLHLSVATRKLRDAGLLGKNASSPTLFRNYVAQFELIPENQPNAVRYR | 0.268
HMSAAPVGPWALSEFLDAVEKDSVERVTFDDAGKALVAVDADGGRHRVEILPSEGPEILAALRKHSVQFA | -0.346
HMLPKNITNTIDHWIQKFPQGKQRSAIIAALHAVQHHNKGFLTNDLLNQVADYIDVPKMNVYEVATFYSM | 0.22
HMFEERKKDWNLTGLLDDVIRRYIHQLTNDELNEINLEKSSGMPDEEIKNGIKLPLAVMQQRRETWGS | -0.308
HMEDDRMLVWFFRKSIQNGAQSEAEGRPIFEGKDYVHIQQPGERDYIEREAHQGDIGRWPRHWQAYQEGR | -0.359
HMDKVSYALGLGIGRQLTDMGAKDLNIDDFAQAIKDVLAGGEVKLSDAEAQTIVRNFFDEQEKKQRA | -0.637
HMEDELVMERFDINELVKSVVNANELRATQKNLSITYDILDTPLYVWADEYKVEEVVTNYLS | -1.06
HMTGIVVVDVVGQVGRPGLVSLPAGSRVADAITAAGGATPEADVSLLNQARLVIDGEQIRVPRPGEVIAA | 0.22

Sequence | soluble fraction (log2)
HMSMSTVGERIKKKRKNLNFTQQELAAKLNISAQAVSKWENGVALPDLGLMPKLAQVLESTVDGLLGYQGA | -0.235
HMSDPVKQVAMRILDLREISDYTVDKMAEVLNVPVEEYRKYESGEVDMPISFLVKIGEVFHVDMTELLTG | -0.679
HMLSLKAQVYEIIRQKILQQEYALGEKINIDTVADELKISNSPIREALMMLSQDGLIEMVPNNGARVI | -1.27
HMSTMKSKWFVSSNPIAGVMKYQAQRKKDVNAVDSSENREASGQWYTDKEEAQAIVDKLNAEEQIKEAGK | 0.0846
HMKITTKNYFKAIAEVGVENLPAALKKSHDLIEERTSKGADWSVYEHDAEVRRVFDLTFEKLFEFIDQ | -1.23
HMESKKKTYTVKSGDTLVSILKREGVPQELIFKDYLGLFLELNPQISDINKLRVGQEIVLPVPG | 0.3
HMRSFRIGGLVEQGSIARDGQSLTVRFAVTDLAHKIPVTYTGLLPDLFKEGKGVVAEGKLGPDGVFHASQV | -0.705
HMKFPIITAKQDSDGKFYWAQTTDKGKTYTFILDGDGKKFPIGGTMPDVKINENGYWSVNGSSTGVLANDL | -0.295
HMVELRDGSLPLARGSVGDLVAEVQRKLGVAADGIFGPQTERAVRAFQARAGLASDGIVGPLTWSALFGA | 0.117
HMGNHMSFKMWGEQLQEAFRALETYDTQKAKTILNELVRFPIDSDITKALKGIISNIDDMMA | -0.721
HMRLSDSEFESIENAIKEKLENSALTADVLVKELSFDEDKIWKVIRWLEDAEKISEDEAGTLLWKPR | -0.76
HMEVIDQLFKIALTLFDIDKGENNSISQDLVDKVIEQMKTTAPTFIKRELSEDEVKKLRFEIQNHFNV | -0.411
HMDAKQLQSLKNNNEQLAGFIVRLTNFYEGLSPDIDAELSKLRSHLSGKVDYTLATVSINKINQLFMLEP | -1.75
HMRELPKRPEIRYAAGDRVFHKAFGNGLVKQVAQTAGGARVTVDFGEGKGVKTFAGDAPMIKI | 0.326
HMTINQIDPASGRKVGYWIITGEMKPKEGFSPDNKIEEGIYVNSRKSGKWIKYWPNGNVRSEIIYKNGR | -0.0109
HMKEVELENMIKAKGFKDAAVLVDERSVTVIVESERLAAGDSASIKELVSRGTGVDPQNVVII | -0.295
HMKALEGMRTVFTLADLATEPVTVEITVLEAFKYTTTLEIVQRPVLREWMTNPSMLIRVYHDASTAE | -0.138
HMTTELDTTAITPIIQKVLKANPDVVAKYKAGQQQVIGFLMGQVMRELSTKPNPKELQSLIVAQLQQA | -0.0703
HMSPQPPNQEAVRTRILDQAAHLFLTIGYAETTVRRIAGAVGIKAASLYHHFGSKDEVFESILIR | 0.21
HMHDIPDITDLRPLRHTLGLTLAHAAQQLNTTTATISRLERGQHRNDHLATTYRTWLHTHPT | 0.08
HMATSNDTQITGSLALRFDGSGDTFTVNVNGDDKLEINTEGTVIYKPLTTAPTYVSGGLFFSSSGDFYVG | -0.163
HMATVNIGNLTFTHKGDYASGTTYAKNDVVYYSTNGNAYIAKQATQGNAPTSTAHWDVFAAGSGG | 0.145
HMDAEKHIVTPEAGLRLDRALTDALPNLSRSRVKQLINEGLVTTENKTITAPSYRVKYGDSFEISIPPPT | -0.134
HMTEELQDMESRIIEAAKRVFVRKGYEATKMSDIALEVGLGRTALHYYFRTKEMLFDAIFGRLMGV | -0.594
HMRGRFGNAAPARNLGDHPQGGAINVKAGRYGPYVSWGKVNATLPKDSDPEKVTLEEAVALIAAKQSGQG | 0.218

Sequence | soluble fraction (log2)
HMGESYQIKDGELLVDIAQRVKPAGMTLRQTINALVAANPRAFRNGNPDLMYRGATLTIPDGDTLRRLAH | 0.0238
HMSLDLERAVALLSLPRPVGNHPEDGELVEAGIGRYGPYVKHGSKYANLPDADEVFTIGMNRAVEVLAAK | -0.261
HMQPADYSDLYAAAKSAGEADMRAAFALTDKQERTAAVNAARETIKAALSEEQLADANLGSALKKLEAGV | -0.261
HMRKLTDRQRQILDLIKTIIAETGAPPTRAEISTALGFKSANAAQEHLQALAQKGMIDLVSGASRGIRLRG | -0.194
HMLQQKESAALGERLLNQALATLKVEPDAISWDRWEALAKEYGAKSQLDILADIGLGKRLSFVVAQALTKV | -0.698
HMNSKMTYSELVTNITNKEVESIKISSTGSTASVKLKNSKSEKEVNIPSLDSFMSYTEEYLKTGDFTLDEE | -0.824
HMLDLPEISARIMEVFETKDRATISELSKLTGTNINTIKKHLSSLVENNYLIKHGKTRGAWYTKST | -0.271
HMSSWAEGLTERERHTLMWITKGLSNKLIARELGISDSTVKVYVKNLLRKLNVNSRLELAAWVHTHPL | -0.246
HMSVNAPMPGKIVNVLVSEGQKVNSGDVLLILEAMKMQNEIAATQAGTVKAINVAAGQSVKVGDALVN | -0.147
HMIELDRTNLLGVFGPKSRPYALLMLSNGEMIKISIGDQFFGWRVYGIDEKSIQVQNGTKQEILRIP | -1.19
HMGVPTEQEIGKRILAWRKLRGMTLQQLADKAGVGLTTIHNLETGLWYAKMPTYLYIAEALGVSLDALIYG | 0.0266
HMAAEELTVDKILTAQSFGVTAEAILAKVNDPANTVATLTQADVDRLRAAGVPEGVVTALQARAPQ | -0.155
HMIDHKVIRSFRQKRNMTLQELAQKANLSVSYLSEIELGKKQPSLETLDKLSKALNISLEGL | 0.131
HMTDIKYLIADGNDIKHWDTASSSYVKVSELPLTSDKFKIYGDDIYHKERTGIIAASPILKIWSPSAE | -0.0343
HMEGMSIYVTVNGDMVHLTGKMSYVFVDVFEHIDFDLSKPQGSGIVTKLNGRDAQYMEEIRSGDMIEIYWR | -0.669
HMKASTRELLDFVLSQRGVSTASVAKALGISVQNASTRLKKLSNEGLIIRSEASSLTGGIEFLYS | 0.0289
HMEVVVPEDLDAALQQASRAQSFFSSLSYTHKKEYVAWINEAKRAETRAMRIQKTITMLESGQRGH | 0.28
HMKNLTEVEYSEFLESIAQDRVSKVQVDGLIIRGEMNDGQRFETVQPQVTDKALIDDMVNHRVDFSGARP | -0.726
HMSASNSIDFANRMIYNKNQVAVFNFGKHMGRPVLEVLKSDPSYYDWMMKGDFPMDTKRKLTEIKLQGF | -0.173
HMEIEETKKNSRTKIPENFDYKLINGLSNEIRAKLELIRPIDLLQASRIDGMTPAALTLVHLWIKKYSG | -0.419
HMVWMIEKDQSVILVNKLERIQVEALGKALENGNFGDRIRVINNKSGQKLLGIVESEKKIQIISKI | -0.077
HMAASEAESIRILLSEGVDRVHLRKPQSAEADMRRLIEALPPELYPRLTLQDHLHLAGEYGT | -0.162
HMVPQAVQDIKAYLASGALPYIGPATAKKIVAMFGSDALDVIAEHPEQLTAIRGLNEEKANAIHQEFRRQF | 0.0364
HMKEYPEVITTSRLNVRTGPGTGYQRLGTLDQNLRVLVLTRQQGWAQIRGMLNGETVIGWVNDYYLQAID | -0.259
HMTTVRLNATVPPELALQRLDRVARELFPEYSRNRLQQWIRSGELLVNGSPSGVRDKVPLGAELAVAANLE | -0.343
